Test results reported in patent publication US20240309110A1 (DANMARKS TEKNISKE UNIVERSITET, published 2024).
Each block holds one binder with its values, some of them ahead of it. No end group written: not given here.

Legend:
[1] = target: T1, AHGVTSAPDTR (T13 and S14 carry GalNAc (Tn), bold and underlined on the sheet); test: glycopeptide microarray (20-mer MUC1 Tn-glycopeptides printed on a chip), RFU as heat map
T1 construct: also called MUC1 20-mer glycopeptide no
T1 peptide: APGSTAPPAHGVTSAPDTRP

[2] = target: T2, PAPGSTAAPAH (S13 and T14 carry GalNAc (Tn), bold and underlined on the sheet); test: as above
T2 construct: also called MUC1 20-mer glycopeptide no
T2 peptide: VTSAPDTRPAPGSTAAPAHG

[3] = target: T3, MUC1 20-mer glycopeptide no. 24 of Table 5 (VTSAPDTRPAPGSAAPPAHG, Thr to Ala) (GalNAc sites are shown in bold and underlined in Table 5; the marks are lost in the text); test: glycopeptide microarray
T3 peptide: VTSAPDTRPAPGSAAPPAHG

[4] = target: T4, MUC1 peptide no 1 (bisTn-MUC1): Btn-Ahx-SAPDTRPAPGS*T*APPAHGVTSAPD-OH (N-terminal Btn-Ahx (biotin-aminohexyl); GalNAc (Tn) on the Ser and the Thr marked * in GS*T*AP); test: glycopeptide microarray, bar chart with single points [panel C4]
T4 construct: Synthetic MUC1 glycopeptide; also called peptide 1; target peptide 1
T4 peptide: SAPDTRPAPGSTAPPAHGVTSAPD

[5] = target: T4, MUC1 peptide no 1 (bisTn-MUC1): …; test: glycopeptide microarray, bar chart with single points [panel D3]
[6] = target: MUC1 20-mer glycopeptide no. 29 of Table 5 (…, no Ala substitution) (GalNAc sites are shown in bold and underlined in Table 5; the marks are lost in the text); test: glycopeptide microarray (20-mer MUC1 Tn-glycopeptides printed on a chip), RFU as heat map
MUC1 20-mer glycopeptide no. 29 of Table 5 (…, no Ala substitution) (GalNAc sites are shown in bold and underlined in Table 5; the marks are lost in the text), sequence (peptide, as listed by the source): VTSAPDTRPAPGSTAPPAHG

[7] = target: T4, MUC1 peptide no 1 (bisTn-MUC1): …; test: glycopeptide microarray, bar chart with single points [panel C7]
[8] = target: T4, MUC1 peptide no 1 (bisTn-MUC1): …; test: glycopeptide microarray
[9] = target: T5, MUC1 peptide no 12 (monoSTnMUC1): GSTAP; test: glycopeptide microarray, signal as heat map
T5 construct: also called glycopeptide 12
T5 peptide: GST(Neu5Ac(a2-6)GalNAc)AP

[10] = target: T6, MUC1 peptide no 11 (bisSTnMUC1): GSTAP (not fully specified (residue 2)); test: glycopeptide microarray, signal as heat map
T6 construct: also called glycopeptide 11
T6 peptide: GST(Neu5Ac(a2-6)GalNAc)AP

binding result [6]: no binding
B4: scFv 2D9Chi (scFv, V domains shown)
VH: not shown
VL: DIVMSQSPSSLAVSVGEKVTMSCKSSQSLLYSSDQKNYLAWYQQKPGQSPKLLIYWASTRESGVPDRFTGSGSGTDFTLTISSVKAEDLAVYYCQQCYSYPFTFGSGTKLERKR
notes: 2D9Chi comprises the 2D9 VL domain and G2D11 VH domain

binding result [7]: no binding
B5: scFv C7-STnMUC1 (scFv)
scFv: VVVTQTPLSLPVSLGDQASISCRSSQSLVHSNGNTYLHWYLQKPGQSPKLLIYKVSNRFSGVPDRFSGSGSGTDFTLKISRVEAEDLGVYFCSQSTHVPRTFGGGTKLEIKRGGGSGGGSGGGSGGGSGGGSQVQMQQSDAELVKPGASVKISCKASGYTFTDHAIHWVKRKPEQGLEWIGYISPGNDDIKYNEKFKGKATLTADKSSSTAYMQLNSLTSEDSAVYFCKRSLLALDYWGQGTTLTVSS
notes: From the STn-template library

binding result [8]: no binding
B7: scFv G2D11 mutant M2 (LAL-TFT) (scFv)
scFv: DVVMTQSHKFMSTSVGDRVSITCKASQDVGTAVAWYQQKPGQSPKLLIYWASTRHTGVPDRFTGSGSGTDFTLTISNVQSEDLADYFCQQYSSYPLTFGGGTKLEMKRGGGGSGGGGSGGGGSGGGGSQVQMQQSDAELVKPGASVKISCKASGYTFTDHAIHWVKRKPEQGLEWIGYISPGNDDIKYNEKFKGKATLTADKSSSTAYMQLNSLTSEDSAVYFCKRSLLALDYWGQGTTLTVSS
notes: also called LAL+TFT mutant M2

binding result [9]: no binding
B8: scFv G2D11 mutant M4 (TFT-G) (scFv)
scFv: DVVMTQSHKFMSTSVGDRVSITCKASQDVGTAVAWYQQKPGQSPKLLIYWASTRHTGVPDRFTGSGSGTDFTLTISNVQSEDLADYFCQQYSSYPLTFGGGTKLEMKRGGGGSGGGGSGGGGSGGGGSQVQMQQSDAELVKPGASVKISCKASGYTFTDHAIHWVKRKPEQGLEWIGYISPGNGDIKYNEKFKGKATLTADKSSSTAYMQLNSLTSEDSAVYFCKRSLPGTFDYWGQGTTLTVSS
notes: The only mutant without LAL; also called TFT mutation only

The next lines start with the binder.

B1: scFv 5E5 (scFv, V domains shown)
VH: QSDAELVKPGSSVKISCKASGYTFTDHAIHWVKQKPEQGLEWIGHFSPGNTDIKYNDKFKGKATLTVDRSSSTAYMQLNSLTSEDSAVYFCKTSTFFFDYWGQGTTLTVSS
VL: ELVMTQSPSSLTVTAGEKVTMICKSSQSLLNSGDQKNYLTWYQQKPGQPPKLLIFWASTRESGVPDRFTGSGSGDFTLTISSVQAEDLAVYYCQNDYSYPLTFGAGTKLELK
notes: Single chain Fv in the microarray; also called svFV 5E5
binding result [1]: no binding
binding result [2]: no binding
binding result [3]: no binding

B2: scFv C4-STnMUC1 (scFv)
scFv: IVMTQSPSSLAVSAGEKVTMSCKSSQSLLNSRTRKNYLAWYQQKPGQSPKLLIYWASTRHTGVPDRFTGSGSGTDFTLTISNVQSEDLAEYFCQQYNSYPYTFGGGTKLEIKRGGGSGGGSGGGSGGGSGGGSQVQMQQSDAELVKPGASVKISCKASGYTFTDHAIHWVKRKPEQGLEWIGYISPGNDDIKYNEKFKGKATLTADKSSSTAYMQLNSLTSEDSAVYFCKRSLLALDYWGQGTTLTVSS
notes: From the STn-template library
binding result [4]: no binding

B3: scFv D3-STnMUC1 (scFv)
scFv: IVMTQSPSSLAVSAGEKVTMSCKSSQSLLNSRTRKNYLAWYQQKPGQSPKLLIYWASTRHTGVPDRFTGSGSGTDFTLTISNVQSEDLAEYFCQQYNSYPYTFGGGTKLEIKRGGGSGGGSGGGSGGGSGGGSQVQMQQSDAELVKPGASVKISCKASGYTFTDHAIHWVKRKPEQGLEWIGYISPGNDDIKYNEKFKGKATLTADKSSSTAYMQLNSLTSEDSAVYFCKRSLLALDYWGQGTTLTVSS
notes: From the STn-template library
binding result [5]: no binding

B6: scFv G2D11 mutant M1 (LAL) (scFv)
scFv: DVVMTQSHKFMSTSVGDRVSITCKASQDVGTAVAWYQQKPGQSPKLLIYWASTRHTGVPDRFTGSGSGTDFTLTISNVQSEDLADYFCQQYSSYPLTFGGGTKLEMKRGGGGSGGGGSGGGGSGGGGSQVQMQQSDAELVKPGASVKISCKASGYIFADHAIHWVKRKPEQGLEWIGYISPGNDDIKYNEKFKGKATLTADKSSSTAYMQLNSLTSEDSAVYFCKRSLLALDYWGQGTTLTVSS
notes: Mutant of scFv G2D11 with the mutations in the VH domain; '-' stands for the deletion of G102; also called LAL mutant M1
binding result [8]: no binding
binding result [9]: no binding
binding result [10]: no binding
